The source of these data is patent CN108948194A.

In assay [1] the target is 全长人CTLA-4 on cells (293F stable line) (human) (UniProt P16410). Kind of assay: FACS on 293F cells expressing human CTLA-4.
For assay [2], the target named is 人CTLA-4.ECD-6xHis (human) (UniProt P16410). Kind of assay: ELISA; human CTLA-4.ECD-6xHis coated at 1.0 μg/mL. (In general: An ELISA detects its analyte on a solid surface through an enzyme-linked reagent.)
The target in assay [3] is 小鼠CTLA-4.ECD-6xHis (mouse) (UniProt P09793). Kind of assay: ELISA; mouse CTLA-4.ECD-6xHis coated at 0.5 μg/mL.
Assay [4] deals with T1, 食蟹猴CTLA-4.ECD-6xHis (cynomolgus monkey) (UniProt G7PL88).
T1 sequence: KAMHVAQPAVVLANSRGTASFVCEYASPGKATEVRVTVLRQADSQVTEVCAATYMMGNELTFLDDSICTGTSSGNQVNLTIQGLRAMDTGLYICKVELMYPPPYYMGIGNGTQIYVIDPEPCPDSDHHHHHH
Kind of assay: ELISA; cynomolgus CTLA-4.ECD-6xHis coated at 0.5 μg/mL.

For assay [5], the target named is 小鼠CTLA-4.ECD-6xHis (mouse) (UniProt P09793). Kind of assay: SPR; antibody captured, mouse CTLA-4.ECD-6xHis as analyte, 1:1 fit. A general note: SPR reads the build-up and loss of mass on a sensor chip optically.
Assay [6] deals with T1, 食蟹猴CTLA-4.ECD-6xHis (cynomolgus monkey). Kind of assay: SPR; antibody captured, cynomolgus CTLA-4.ECD-6xHis as analyte, 1:1 fit.
The target in assay [7] is 全长人CTLA-4 on cells (293F stable line) (human) (UniProt P16410). Kind of assay: FACS affinity (modified Benedict method) on cells expressing human CTLA-4.
Assay [8] concerns the target 人CTLA-4.ECD.hFc (human) (UniProt P16410). Kind of assay: competition ELISA; CTLA-4.ECD.hFc coated, competitor CD80-6xHis at 0.25 μg/mL.
For assay [9] the target is unchanged. Kind of assay: competition ELISA; CTLA-4.ECD.hFc coated, competitor CD86-6xHis at 0.25 μg/mL.
Assay [10] concerns the target 人CTLA-4.ECD-6xHis (human) (UniProt P16410). Kind of assay: SPR (Biacore T200); antibody captured on anti-human Fc, hCTLA-4.ECD-6xHis as analyte, 1:1 fit.
Assay [11] deals with 人CTLA-4.ECD.hFc (human) (UniProt P16410). Kind of assay: FACS competition; biotinylated hCTLA-4.ECD.hFc on CD80-expressing CHO cells (competitor CD80).
Assay [12] has the same target. Kind of assay: FACS competition; biotinylated hCTLA-4.ECD.hFc on CD86-expressing CHO cells (competitor CD86).

The term EC50 denotes the concentration needed to bring the measured effect to its halfway point. A high value points to lower potency in that assay. One may read the Kd as the free concentration of one partner at which half of the binding sites on the other are occupied at equilibrium, for simple one-to-one binding. As a reminder, the IC50 is the concentration at which inhibition is half-maximal. Read a high IC50 as lower potency.

B1: W3162-1.146.19-z12-IgGk (antibody, from another filing, V domains shown)
VH: QVQLQESGPGLVKPSETLSLTCSVTYHTITSGYDWTWIRKPPGKGMEWIGYISYSGNTNYNPSLKSRVTISRDTSKNQFFLKLSSVTAADTAVYYCASMMVPHYYVMDAWGQGTLVTVSS
VL: DIVMTQTPLSLSVTPGQPASISCRSSQSLLNSDGNTYLYWYLQKPGQSPQLLIYLVSKLGSGVPNRFSGSGSGTDFTLKISRVEAEDVGVYYCVQGTHDPWTFGGGTKVEIK
With B1, the EC50 in assay [1] stood at 1.58 nM; in [2] it was 0.03 nM; in [3], 0.19 nM; in [4], 0.05 nM. In addition, the dissociation constant Kd is 1.39 nM in assay [5], 1.92 nM in assay [6], 5.05 nM in [7] and 0.477 nM in [10]. The IC50 amounted to 0.87 nM with 人CTLA-4.ECD.hFc (human) [8], 0.71 nM with 人CTLA-4.ECD.hFc (human) [9], 6.6 nM with 人CTLA-4.ECD.hFc (human) [11] and 5.15 nM in the assay with 人CTLA-4.ECD.hFc (human) [12]. Also, the percent of CTLA-4 binding blocked at the highest concentration with 人CTLA-4.ECD.hFc (human) [11] turned out to be 71%; with 人CTLA-4.ECD.hFc (human) [12], 73%.

B2: W3162-1.154.8-z35-IgGk (antibody, from another filing, V domains shown)
VH: QVQLVQSGAEVKKPGSSVKVSCKASGYTFTNYFMNWVRQAPGQGLEWMGRVDPEQGRADYAEKFKKRVTITADKSTSTAYMELSSLRSEDTAVYYCARRAMDNYGFAYWGQGTLVTVSS
VL: EIVLTQSPDFQSVTPKEKVTITCSANSALSYMYWYQQKPDQSPKLWVHGTSNLASGVPSRFSGSGSGTDFTLTINSLEAEDAATYYCHHWSNTQWTFGGGTKVEIK
Turning to B2, the values for the EC50 in [1], in assay [2] and in assay [4] were 0.66 nM, 0.04 nM and 0.05 nM, respectively. Also, the Kd in [6] is 0.131 nM; in assay [7] it was 0.35 nM; in [10], 0.0968 nM. Also, the 50% inhibitory concentration (IC50) with 人CTLA-4.ECD.hFc (human) [8] came to 0.63 nM; in the assay with 人CTLA-4.ECD.hFc (human) [9] it was 0.5 nM; with 人CTLA-4.ECD.hFc (human) [11], 0.07 nM; with 人CTLA-4.ECD.hFc (human) [12] it was 0.28 nM. Also, the percent of CTLA-4 binding blocked at the highest concentration is 89% in the assay with 人CTLA-4.ECD.hFc (human) [11] and 98% in the assay with 人CTLA-4.ECD.hFc (human) [12].
